This is an account of results in PMC9912922, “The LH–DH module of bacterial replicative helicases is the common binding site for DciA and other helicase loaders” (Acta Crystallographica. Section D, Structural Biology, 2023).

B1: EcDnaC, helicase loader DnaC from Escherichia coli (natural protein)
chain: MKNVGDLMQRLQKMMPAHIKPAFKTGEELLAWQKEQGAIRSAALERENRAMKMQRTFNRSGIRPLHQNCSFENYRVECEGQMNALSKARQYVEEFDGNIASFIFSGKPGTGKNHLAAAICNELLLRGKSVLIITVADIMSAMKDTFRNSGTSEEQLLNDLSNVDLLVIDEIGVQTESKYEKVIINQIVDRRSSSKRPTGMLTNSNMEEMTKLLGERVMDRMRLGNSLWVIFNWDSYRSRVTGKEY
notes: DnaC helicase loader, Escherichia coli; source: overexpressed in E. coli, purified as described in Marsin et al. (2021)
B2: VcDnaB, replicative helicase DnaB from Vibrio cholerae (enzyme)
chain: MADPRTDNRNRKIPDAQVDAIKVPPHSLEAEQSVIGGLLLDNERWDTVSEHVMTQDFYSRPHRLIFDGVKSILEAGKPLDLITLSEYLEQREQLEDVGGFAYLADLAKNTPSAANINAYAEIVAERALVRNLIGVANEIADAGYDPQGRNAEDLLDLAESKVFAIAEARTSENEGPKNVDSILERTLERIELLYKTPQDGVTGVNTGFTDLNKKTAGLQGSDLIIVAARPSMGKTTFAMNLCENAAMEQDKPVLIFSLEMPAEQIMMRMLASLSRVDQTKIRTGQLDDEDWARISSTMGILMEKKNMYIDDSSGLTPTEVRSRARRIAREHGGLSLIMVDYLQLMRVPALTDNRTLEIAEISRSLKALAKELNVPVVALSQLNRSLEQRADKRPVNSDLRESGSIEQDADLIMFIYRDEVYHPDSPLKGTAEIIIGKQRNGPIGSVRLTFQGHYSRFDNYAGPAFDDE
notes: DnaB replicative helicase, Vibrio cholerae; seen as full-length protein without proteolysis on SDS-PAGE of the crystals; NTD 22-175 and CTD 200-461 of PDB 6t66 were the search models

The target of data set [1] is B2. Kind of data set: intrinsic fluorescence variation along a thermal ramp (Tycho NT.6 nano-DSF); 20 µM of each protein in 50 mM HEPES pH 7.5, 150 mM NaCl, 1 mM ATP; 350/330 nm ratio, 35 to 95°C, compared with the ratio predicted in the absence of interaction; three to five replicates. The settings on record: both partners purified.
Data set [2] deals with the molecule itself. Kind of data set: crystal structure; VcDnaB (0.115 mM monomer) pre-incubated with 2 mM ADP and 5 mM MgCl2, VcDciA added to 0.138 mM; crystals at 18°C in 0.1 M sodium acetate pH 4.8-5.6, 0.7-0.9 M potassium/sodium tartrate; 2.9 Å.

For the molecule B1, in data set [1], the binding result is recorded as “binds”.
Take B2: in data set [2], the binding result is “binds”.
